Results on one molecule are retold here after patent publication US20120172306A1, “Use of HASF as a Protective Agent Against Ischemic Tissue Damage” (Duke University, priority 2009, published 2012).

One assay has as its system adult rat cardiomyocytes. The assay can be described thus: Mitochondrial permeability transition pore (mPTP) channel opening after hypoxia/reoxygenation. The class given is cell-based. The note with it: HASF (100 nM) prior to hypoxia/reoxygenation, vs control untreated samples. The method, then:
FIG. 2D is a series of photomicrographs and a bar graph showing that HASF protects from mPTP channel opening and cell death after ischemia and reperfusion. Adult rat cardiac myocytes were cold-loaded with fluorescent calcein and CoCl2 and subjected to 3-5 h of ischemia followed by 30-60 min reperfusion. Mitochrondria were counterstained with TMRM. Under these conditions increased calcein intensity (green) indicate the entrapped calcein in mitochrondria which is due to reduction of open mPTP channels. Upper panel: Representative images of cells subjected to 3 h ischemia, 60 min reperfusion and cells treated with 100 nM HASF prior to 3 h ischemia, 60 min reperfusion. Lower panel: Quantitative fluorescence analysis of images represented above. The percentage of Calcein intensity was normalized to mitotracker, mitochondrial, intensity and the value was inverted and presented as of mPTP channel opening. Data are presented as means±stdev of values estimated from 8 images per condition.
FIG. 4D is a bar graph and a photomicrograph showing the effect of recombinant protein, HASF on mPTP channel as imaged by confocal microscopy. […] The presence of PKCepsilon inhibitor peptide caused the opening of the mPTP channel as observed by decreased (quenched) calcein intensity. The bar graph depicts measured fluorescence of calcein versus mitotracker intensity under different conditions. […]

For assay [1], the system named is rat myocardial infarction. The assay is described as follows: In vivo ischemia/reperfusion injury, infarct size (TTC/Evans Blue). Particulars: 1 μg intramyocardial injection, 30 min ischemia, 24 h reperfusion. The method, then: FIG. 5A is a series of photographs and a bar graph showing infarct area. Rats were randomly divided into PBS control group and HASF injected group, n=10 for each group. The reperfusion injury model was achieved by 30 min coronary ligation with the immediate injection of vehicle PBScontrol or 1 μg of […] recombinant protein into the myocardium area below ligation suture, followed by loosening of the ligation suture to achieve reperfusion injury. […] The mean of % of infarct area for all sections of each heart was calculated blindly for comparisons using ImageJ computer software. Representative photos from each group are shown.
Female Sprague-Dawley rats were used for all in vivo experiments. A midsternal thoracotomy was performed to expose the anterior surface of the heart after anesthesia. […]
For analysis of infarct size, 24 h after reperfusion, the LAD was re-ligated and ˜300 μl of 1% Evans Blue in PBS (pH 7.4) was retrogradely infused into the heart in a 2-3 min period to delineate the non-ischemic area. […] Area at risk (AAR) was calculated as the left ventricular total area excluding Evans Blue dye positive area, and % infarct area was calculated as the % of infarct area/AAR. The mean of % of infarct area for all sections of each heart was calculated blindly for comparisons using ImageJ computer software, with 10 rats in each group.

B1: HASF: Hypoxia regulated Akt MSC Factor, secreted protein encoded by C3orf58; recombinant human protein without N-signal sequence, SEQ ID NO:1 or 2 (protein, UniProt Q8NDZ4 36-430, looked up)
Divergent protein kinase …: LASWQRNELTDRRFLQLNKCPACFGTSWCRRFLNGQVVFEAWGRLRLLDFLNVKNVYFAQYGEPREGGRRRVVLKRLGSQRELAQLDQSICKRATGRPRCDLLQAMPRTEFARLNGDVRLLTPEAVEGWSDLVHCPSQRLLDRLVRRYAETKDSGSFLLRNLKDSERMQLLLTLAFNPEPLVLQSFPSDEGWPFAKYLGACGRMVAVNYVGEELWSYFNAPWEKRVDLAWQLMEIAEQLTNNDFEFALYLLDVSFDNFAVGPRDGKVIIVDAENVLVADKRLIRQNKPENWDVWYESKFDDCDKEACLSFSKEILCARATVDHNYYAVCQNLLSRHATWRGTSGGLLHDPPSEIAKDGRLEALLDECANPKKRYGRFQAAKELREYLAQLSNNVR
modifications: 6xHis tag
B1: the mPTP channel opening entry with adult rat cardiomyocytes is “reduced compared to control untreated samples”. Moreover, the “reduction in the infarct size” value in assay [1] is on record as about 58%.
